This is an account of results in paper PMC2430334.

The target in this data set is T1, rOxyR (Porphyromonas gingivalis 33277?) (UniProt B2RHP2).
T1 sequence: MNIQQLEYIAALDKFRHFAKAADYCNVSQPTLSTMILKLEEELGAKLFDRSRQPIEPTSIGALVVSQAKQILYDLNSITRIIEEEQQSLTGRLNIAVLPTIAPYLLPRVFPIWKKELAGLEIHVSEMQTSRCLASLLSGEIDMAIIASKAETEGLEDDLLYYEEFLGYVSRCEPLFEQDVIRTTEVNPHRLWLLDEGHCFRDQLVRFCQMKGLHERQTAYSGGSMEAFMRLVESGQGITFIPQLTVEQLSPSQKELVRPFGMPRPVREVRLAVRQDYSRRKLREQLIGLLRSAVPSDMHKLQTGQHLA
Description: EMSA.

As to “CGTCTTACCGGCTTCCCTATAGCAAAGGAAAGCATTTTTTTCTACTAAAAATTAATTCTAACAATATTCTGCTGTCTTCTACGTGTTTATACGCAGAAAAACGAAAAAAAACCGCACTACTCAATAAAAAAAACGCGATATTGACCCTCGCGAGAG (double strand) [mfa1 promoter region]”, the binding result is on record as “no binding”. In the case of “CTTTTCGCCCGAAGGTTTTATCTTCCGGCCGGAGCTTTCGGATGAGATCAACTACCTTTTCGTCATGGAATGAATCGGTTTTTACGACCAAGATTCGAACCTTTTTCCGTTCATCATGTTCTTATAATGATTAAAAAGTTGTCGGTGTCGGTTTTACACTGCTCCGATACAAATTATTAAAAGACTTAATTACAATAAAAATCAGACGTT (double strand) [sod promoter region]”, the binding result is “binds”.
